Test results reported in patent publication US20240116985A1 (published 2024).
Starred links: 1 amine or outer side, 2 acyl side, 3 side chain; linkers in the order of their positions; H or OH if unused. Positions of bridges follow the written chain, without caps; N, C: chain ends. Non-standard residues stand in square brackets, D forms with d. Primed or numbered codes have the meaning given here. B5(4) = 2,2-bis(4-pentenyl)glycine = 2-amino-2-(pent-4-en-1-yl)hept-6-enoic acid (stitching residue), C=CCCCC(CCCC=C)(N[*:1])C(=O)[*:2]; B5(21) = 2-amino-2-(pent-4-en-1-yl)hept-6-enoic acid, bis(4-pentenyl)glycine (stitching residue), C=CCCCC(CCCC=C)(N[*:1])C(=O)[*:2]; B5(9) = 2-amino-2-(pent-4-en-1-yl)hept-6-enoic acid (2,2-bis(4-pentenyl)glycine), C=CCCCC(CCCC=C)(N[*:1])C(=O)[*:2]; 23FF = 2,3-difluoro-L-phenylalanine, O=C([C@H](Cc1cccc(F)c1F)N[*:1])[*:2]; (NHnPr)AsnR = N4-propyl-L-asparagine, CCCNC(=O)C[C@H](N[*:1])C(=O)[*:2]; (NHMe)AsnR = N4-methyl-L-asparagine, CNC(=O)C[C@H](N[*:1])C(=O)[*:2]; Phe(3-CF3) = N[C@@H](Cc1cccc(C(F)(F)F)c1)C(=O)O; Phe(3,5-F2) = N[C@@H](Cc1cc(F)cc(F)c1)C(=O)O; Bta = N[C@@H](Cc1csc2ccccc12)C(=O)O; αAllylPro = C=CC[C@@]1(C(=O)O)CCCN1; S8 = C=CCCCCCC[C@](C)(N)C(=O)O

T1: full-length beta-Catenin (Uniprot ID P35222) (Homo sapiens (Human), UniProt P35222 1-781)
T1 construct: also called bCat; B-Catenin
T1 sequence: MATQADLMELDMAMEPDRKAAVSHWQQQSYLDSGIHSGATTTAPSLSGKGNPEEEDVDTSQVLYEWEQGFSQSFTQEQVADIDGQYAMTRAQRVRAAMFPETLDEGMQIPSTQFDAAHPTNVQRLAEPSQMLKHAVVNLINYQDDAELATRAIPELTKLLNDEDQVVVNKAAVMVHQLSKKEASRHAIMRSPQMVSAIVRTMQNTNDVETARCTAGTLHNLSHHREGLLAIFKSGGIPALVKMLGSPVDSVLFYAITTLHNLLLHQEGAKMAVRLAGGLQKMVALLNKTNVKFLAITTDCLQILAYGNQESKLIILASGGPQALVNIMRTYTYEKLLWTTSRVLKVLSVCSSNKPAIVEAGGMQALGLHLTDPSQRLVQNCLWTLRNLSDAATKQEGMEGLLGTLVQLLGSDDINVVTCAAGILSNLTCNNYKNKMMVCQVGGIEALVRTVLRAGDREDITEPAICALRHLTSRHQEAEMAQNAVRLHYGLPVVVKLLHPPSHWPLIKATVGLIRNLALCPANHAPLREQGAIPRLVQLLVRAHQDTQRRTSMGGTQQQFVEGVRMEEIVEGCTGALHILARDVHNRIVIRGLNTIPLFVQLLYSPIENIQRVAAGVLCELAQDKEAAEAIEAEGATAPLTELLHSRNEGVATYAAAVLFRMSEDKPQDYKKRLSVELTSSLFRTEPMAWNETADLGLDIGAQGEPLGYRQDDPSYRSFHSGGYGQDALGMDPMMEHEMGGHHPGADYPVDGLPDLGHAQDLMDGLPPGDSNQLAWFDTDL

T2: full-length beta-Catenin (Uniprot ID P35222) (Homo sapiens (Human), UniProt P35222 1-781)
T2 construct: also called bCat; B-Catenin
T2 sequence: T1 sequence

B1: I-542 (peptide)
peptide: XDTXDEAAFQXFXQ
modifications: not fully specified; Ac-PL3-Asp-TOMe-B5-Asp-Glu-Ala-Ala-Phe-Gln-S8-Phe-BztA-Gln-NH2; N-terminal acetyl, C-terminal amide; non-natural: PL3(1), TOMe(3), B5(4), S8(11), BztA(13); staples PL3(1)-B5(4) and B5(4)-S8(11)
B2: I-563 (peptide)
peptide: XDLXDDAAFNXFXQ
modifications: not fully specified; Ac-PL3-Asp-Leu-B5-Asp-Asp-Ala-Ala-Phe-Asn-S8-Phe-BztA-Gln-NH2; N-terminal acetyl, C-terminal amide; non-natural: PL3(1), B5(4), S8(11), BztA(13); staples PL3(1)-B5(4) and B5(4)-S8(11)
B3: I-375 (peptide)
peptide: Ac-[αAllylPro]DA[B5(4)]DDAA[Phe(3-CF3)]A[S8]F[Bta]Q-NH2
modifications: staple 1-4, 4-11; not fully specified; printed as Ac-PL3-Asp-Ala-B5-Asp-Asp-Ala-Ala-3F3MeF-Ala-S8-Phe-BztA-Gln-NH2
notes: Stapled peptide
B4: I-382 (peptide)
peptide: XDAXDNAAFVXFXQ
modifications: not fully specified; Ac-PL3-Asp-Ala-B5-Asp-Asn-Ala-Ala-Phe-Val-S8-3FF-BztA-Gln-NH2: N-terminal acetyl, C-terminal amide; non-natural PL3(1), B5(4), S8(11), 3FF(12), BztA(13); staples PL3-B5 and B5-S8
notes: Stapled peptide
B5: I-380 (peptide)
peptide: Ac-[αAllylPro]DA[B5(9)]DDAA[Phe(3-CF3)]Q[S8]F[Bta]Q-NH2
modifications: staple 1-4, 4-11; not fully specified; printed as Ac-PL3-Asp-Ala-B5-Asp-Asp-Ala-Ala-3F3MeF-Gln-S8-Phe-BztA-Gln-NH2
notes: Stapled peptide
B6: I-396 (peptide)
peptide: XDAXDHAAFVXFXQ
modifications: not fully specified; Ac-PL3-Asp-Ala-B5-Asp-His-Ala-Ala-Phe-Val-S8-3FF-BztA-Gln-NH2: N-terminal acetyl, C-terminal amide; non-natural PL3(1), B5(4), S8(11), 3FF(12), BztA(13); staples PL3-B5 and B5-S8
notes: Stapled peptide
B7: I-381 (peptide)
peptide: XDAXDNAAFVXFXQ
modifications: not fully specified; Ac-PL3-Asp-Ala-B5-Asp-Asn-Ala-Ala-Phe-Val-S8-3FF-BztA-Gln-NH2: N-terminal acetyl, C-terminal amide; non-natural PL3(1), B5(4), S8(11), 3FF(12), BztA(13); staples PL3-B5 and B5-S8
notes: Stapled peptide
B8: I-394 (peptide)
peptide: Ac-[αAllylPro]DA[B5(9)]DEAAFV[S8][Phe(3,5-F2)][Bta]Q-NH2
modifications: staple 1-4, 4-11
notes: Stapled peptide composition (olefin metathesis)
B9: I-379 (peptide)
peptide: Ac-[αAllylPro]DA[B5(9)]DDAA[Phe(3-CF3)]Q[S8]F[Bta]Q-NH2
modifications: staple 1-4, 4-11; not fully specified; printed as Ac-PL3-Asp-Ala-B5-Asp-Asp-Ala-Ala-3F3MeF-Gln-S8-Phe-BztA-Gln-NH2
notes: Stapled peptide
B10: I-377 (peptide)
peptide: Ac-[αAllylPro]DA[B5(4)]DDAA[Phe(3-CF3)]A[S8]F[Bta]Q-NH2
modifications: staple 1-4, 4-11; not fully specified; printed as Ac-PL3-Asp-Ala-B5-Asp-Asp-Ala-Ala-3F3MeF-Ala-S8-Phe-BztA-Gln-NH2
notes: Stapled peptide
B11: I-376 (peptide)
peptide: Ac-[αAllylPro]DA[B5(4)]DDAA[Phe(3-CF3)]A[S8]F[Bta]Q-NH2
modifications: staple 1-4, 4-11; not fully specified; printed as Ac-PL3-Asp-Ala-B5-Asp-Asp-Ala-Ala-3F3MeF-Ala-S8-Phe-BztA-Gln-NH2
notes: Stapled peptide
B12: I-378 (peptide)
peptide: Ac-[αAllylPro]DA[B5(9)]DDAA[Phe(3-CF3)]Q[S8]F[Bta]Q-NH2
modifications: staple 1-4, 4-11; not fully specified; printed as Ac-PL3-Asp-Ala-B5-Asp-Asp-Ala-Ala-3F3MeF-Gln-S8-Phe-BztA-Gln-NH2
notes: Stapled peptide
B13: I-373 (peptide)
peptide: Ac-[αAllylPro]DA[B5(4)]DDAA[Phe(3-CF3)]V[S8]F[Bta]Q-NH2
modifications: staple 1-4, 4-11
notes: as for B8

biological target: T1, full-length beta-Catenin (Uniprot ID …); test: fluorescence polarization competition; displacement of 5FAM-TCF4(10-53) from full-length beta-catenin
Procedure: (§1) The plate was incubated protected from light for 60 minutes at 20° C. prior to read. Reads were performed on a CLARIOstar plate reader (BMG Labtech) in duplicate, and data were fitted to a 1:1 binding model with hill slope using an in-house script. All provided concentrations are final concentrations.

Binder | EC50 [nM]
Ac-[αAllylPro]DA[B5(21)][(NHMe)AsnR]DAAFV[S8]F[Bta]Q-NH2 (staple 1-4, 4-11, Stapled (stitched) peptide composition) [I-540] | 5000
B1 | 109
Ac-[αAllylPro]DA[B5(21)][(NHnPr)AsnR]DAAFV[S8]F[Bta]Q-NH2 (staple 1-4, 4-11, Stapled (stitched) peptide composition) [I-537] | 5000
B2 | 19

biological target: T2, full-length beta-Catenin (Uniprot ID …); test: fluorescence polarization competition; 10 nM full-length beta-catenin, competitor 10 nM 5FAM-TCF4(10-53)
Procedure: as §1

Binder | EC50 [nM]
B3 | 3010
B4 | 2060
B5 | 552
B6 | 3430
B7 | 3650
Ac-[αAllylPro]DA[B5(9)]DEAAFV[S8][23FF][Bta]Q-NH2 (staple 1-4, 4-11; also: later eluting HPLC isomer, E/Z not assigned, Stapled peptide) [I-389] | 5000
B8 | 5000
B9 | 1340
Ac-[αAllylPro]DA[B5(9)]DEAA[23FF]V[S8]F[Bta]Q-NH2 (staple 1-4, 4-11; also: later eluting HPLC isomer, E/Z not assigned, Stapled peptide) [I-391] | 1910
B10 | 1320
B11 | 1320
B12 | 1340
Ac-[αAllylPro]DA[B5(9)]DEAAFV[S8][23FF][Bta]Q-NH2 (staple 1-4, 4-11; also: earlier eluting HPLC isomer, E/Z not assigned, Stapled peptide) [I-388] | 5000
Ac-[αAllylPro]DA[B5(9)]DEAA[23FF]V[S8]F[Bta]Q-NH2 (staple 1-4, 4-11; also: earlier eluting HPLC isomer, E/Z not assigned, Stapled peptide) [I-390] | 3420
B13 | 945
